T1: mouse CD47-Fc (mouse, UniProt Q61735 19-140, limits assumed)
T1 construct: not shown: Fc part
T1 sequence (looked up): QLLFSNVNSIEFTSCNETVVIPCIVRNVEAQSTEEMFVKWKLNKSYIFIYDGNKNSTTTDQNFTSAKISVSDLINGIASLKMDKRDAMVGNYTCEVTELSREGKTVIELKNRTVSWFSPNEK


Assays:
Human CD47-Fc [1] = target: T2, Human CD47-Fc (human, UniProt Q08722 19-139, limits assumed); test: bio-light interferometry (ForteBio), human CD47-Fc on AHQ tip, Fab 100 nM in solution, monovalent
T2 construct: the whole entry is named here; also called human CD47 (hCD47); CD47 antigen; not shown: Fc part

Human CD47-Fc [2] = target: T2, Human CD47-Fc; test: bio-light interferometry (ForteBio), IgG1 on AHQ tip, human CD47-Fc 100 nM in solution, bivalent
Description: (§1) In brief, Sensors were equilibrated off-line in assay buffer for 30 min and then tested on-line for 60 sec to establish the base line. The purified antibody obtained as described above was loaded on-line onto AHQ sensor (ForteBio) to perform ForteBio affinity measurement. Then, the sensor loaded with the antibody was exposed to 100 nM of CD47 antigen for 5 min, followed by transferring the sensor into the assay buffer for 5 min to measure the dissociation rate. A kinetics analysis was performed using the 1:1 binding model.

[3] = target: T3, human CD47 overexpressed on CHO cells (human, UniProt Q08722 19-292); test: flow cytometry competition on CHO-hCD47 cells against 200 nM mouse Fc-labelled SIRPα
T3 construct: CHO cells transfected with pCHO1.0 bearing a human CD47 cDNA (Sino Biological); also called hCD47; CHO-hCD47 cells
Description: Then the cells were washed 3 times and subsequently incubated with a secondary antibody, goat-anti-mouse IgG-APC (Allophycocyanin) (Biolegend), in PBS with 0.1% BSA on ice for 30 min (in dark). Cells were washed 3 times. Flow cytometry assay was performed on Accuri C6 System (BD Biosciences) and MFI was calculated with C6 software.

[4] = target: T3, human CD47 overexpressed on CHO cells; test: flow cytometry on CHO-hCD47 cells, PE anti-human IgG
Description: Then the cells were washed at least two times and incubated with a secondary antibody (PE-labelled goat anti-human IgG antibody, Southern Biotech, final concentration of 5 μg/ml) in PBS with 0.1% BSA on ice for 30 min (in dark). The cells were washed at least two times and analyzed by flow cytometry. Flow cytometry was performed on Accuri C6 System (BD Biosciences) and a concentration-dependent graph was fitted with GraphPad, according to MFI of the cells.

mouse CD47-Fc [5] = target: T1, mouse CD47-Fc; test: bio-light interferometry (ForteBio), IgG1 on AHQ tip, mouse CD47-Fc in solution, bivalent
cynomolgus CD47-Fc = target: T4, cynomolgus CD47-Fc (cynomolgus, UniProt A0A2K5X523 19-139); test: bio-light interferometry (ForteBio), IgG1 on AHQ tip, cynomolgus CD47-Fc 100 nM in solution, bivalent
T4 construct: not shown: Fc part

mouse CD47-Fc [6] = target: T1, mouse CD47-Fc; test: bio-light interferometry (ForteBio), IgG1 on AHQ tip, mouse CD47-Fc 100 nM in solution, bivalent
Description: as §1

| Binder | Kd (Human CD47-Fc [1]) | Kd (Human CD47-Fc [2]) | IC50 [3] | EC50 [4] | binding result (mouse CD47-Fc [5]) | also measured |
| --- | --- | --- | --- | --- | --- | --- |
| ADI-26624 in Fab format (Fab, V domains shown) VH: QVQLQESGPGLVKPSETLSLTCTVSGGSISSYYWSWIRQPPGKGLEWIGYIYYSGSTNYNPSLKSRVTISVDTSKNQFSLKLSSVTAADTAVYYCARGKSAFDPWGQGTLVTVSS VL: DIQMTQSPSSVSASVGDRVTITCRASQGISRWLAWYQQKPGKAPKLLIYAASSLQSGVPSRFSGSGSGTDFTLTISSLQPEDFATYYCQQADLHPPLTFGGGTKVEIKR | 65.8 nM |  |  |  |  |  |
| ADI-26624 in IgG1 format produced in yeast cells (antibody, also called ADI26624-IgG1) heavy: not shown light: DIQMTQSPSSVSASVGDRVTITCRASQGISRWLAWYQQKPGKAPKLLIYAASSLQSGVPSRFSGSGSGTDFTLTISSLQPEDFATYYCQQADLHPPLTFGGGTKVEIKRTVAAPSVFIFPPSDEQLKSGTASVVCLLNNFYPREAKVQWKVDNALQSGNSQESVTEQDSKDSTYSLSSTLTLSKADYEKHKVYACEVTHQGLSSPVTKSFNRGEC |  | 1.05 nM | 11.2 nM | 2.25 nM | no binding (tested: 100 nM) |  |
| ADI-26624 in IgG4 format produced in CHO cells (antibody, also called ADI26624-IgG4) heavy: not shown light: DIQMTQSPSSVSASVGDRVTITCRASQGISRWLAWYQQKPGKAPKLLIYAASSLQSGVPSRFSGSGSGTDFTLTISSLQPEDFATYYCQQADLHPPLTFGGGTKVEIKRTVAAPSVFIFPPSDEQLKSGTASVVCLLNNFYPREAKVQWKVDNALQSGNSQESVTEQDSKDSTYSLSSTLTLSKADYEKHKVYACEVTHQGLSSPVTKSFNRGEC |  |  | 1.04 nM |  |  |  |
| ADI-29336 in IgG1 format produced in yeast cells (antibody, also called ADI29336-IgG1) heavy: not shown light: DIQMTQSPSSVSASVGDRVTITCRASQGISRWLAWYQQKPGKAPKLLIYAASSLQSGVPSRFSGSGSGTDFTLTISSLQPEDFATYYCQQADLHPPLTFGGGTKVEIKRTVAAPSVFIFPPSDEQLKSGTASVVCLLNNFYPREAKVQWKVDNALQSGNSQESVTEQDSKDSTYSLSSTLTLSKADYEKHKVYACEVTHQGLSSPVTKSFNRGEC |  | 0.477 nM | 8.55 nM | 6.72 nM | no binding (tested: 100 nM) | Kd (cynomolgus CD47-Fc): 0.544 nM |
| ADI-30794 in IgG1 format produced in yeast cells (antibody, V domains shown, also called ADI 30794-IgG1) VH: EVQLLESGGGLVQPGGSLRLSCAASGFTFGNYAMSWVRQAPGKGLEWVSAISGSGGKTYYADSVKGRFTISRDNSKNTLYLQMNSLRAEDTAVYYCAKTAIYYGFDLWGRGTLVTVSS VL: DIQLTQSPSSVSASVGDRVTITCRASQGISSWLAWYQQKPGKAPKLLIYGASSLQSGVPSRFSGSGSGTDFTLTISSLQPEDFATYYCQQKNPFPPFFGGGTKVEIKR |  | 0.562 nM |  | 3.7 nM | no binding (tested: 100 nM) |  |
| ADI-29341 in Fab format (Fab, V domains shown) VH: QVQLQESGPGLVKPSETLSLTCTVSGGSIEHYYWSWIRQPPGKGLEWIGYIYYSGSTNYNPSLKSRVTISVDTSKNQFSLKLSSVTAADTAVYYCARGKTGSAAWGQGTLVTVSS VL: DIQMTQSPSSVSASVGDRVTITCRASQGISRWLAWYQQKPGKAPKLLIYAASSLQSGVPSRFSGSGSGTDFTLTISSLQPEDFATYYCQQTVSFPITFGGGTKVEIKR | 4.62 nM |  |  |  |  |  |
| ADI-30793 in Fab format (Fab, V domains shown) VH: EVQLLESGGGLVQPGGSLRLSCAASGFTFDSYAMTWVRQAPGKGLEWVSVISGSGGKTYYADSVKGRFTISRDNSKNTLYLQMNSLRAEDTAVYYCAKTHLYYGFDLWGRGTLVTVSS VL: DIQLTQSPSSVSASVGDRVTITCRASQGISSWLAWYQQKPGKAPKLLIYGASSLQSGVPSRFSGSGSGTDFTLTISSLQPEDFATYYCQQKNPFPPFFGGGTKVEIKR | 9.34 nM |  |  |  |  |  |
| ADI-30793 in IgG1 format produced in yeast cells (antibody, V domains shown, also called ADI 30793-IgG1) VH: EVQLLESGGGLVQPGGSLRLSCAASGFTFDSYAMTWVRQAPGKGLEWVSVISGSGGKTYYADSVKGRFTISRDNSKNTLYLQMNSLRAEDTAVYYCAKTHLYYGFDLWGRGTLVTVSS VL: DIQLTQSPSSVSASVGDRVTITCRASQGISSWLAWYQQKPGKAPKLLIYGASSLQSGVPSRFSGSGSGTDFTLTISSLQPEDFATYYCQQKNPFPPFFGGGTKVEIKR |  | 0.632 nM |  | 2.92 nM |  | Kd (mouse CD47-Fc [6]): 4.57 nM; Kd (cynomolgus CD47-Fc): 0.584 nM |
| ADI-26591 in IgG1 format, expressed in yeast (antibody, V domains shown, also called ADI 26591-IgG1) VH: not shown VL: DIQLTQSPSSVSASVGDRVTITCRASQGISSWLAWYQQKPGKAPKLLIYGASSLQSGVPSRFSGSGSGTDFTLTISSLQPEDFATYYCQQKNPFPPTFGGGTKVEIKR |  | 5.38 nM |  | 3.77 nM | no binding (tested: 100 nM) | Kd (cynomolgus CD47-Fc): 3.39 nM |
| ADI-30794 in Fab format (Fab, V domains shown) VH: EVQLLESGGGLVQPGGSLRLSCAASGFTFGNYAMSWVRQAPGKGLEWVSAISGSGGKTYYADSVKGRFTISRDNSKNTLYLQMNSLRAEDTAVYYCAKTAIYYGFDLWGRGTLVTVSS VL: DIQLTQSPSSVSASVGDRVTITCRASQGISSWLAWYQQKPGKAPKLLIYGASSLQSGVPSRFSGSGSGTDFTLTISSLQPEDFATYYCQQKNPFPPFFGGGTKVEIKR | 3.13 nM |  |  |  |  |  |
| ADI-29371 in IgG1 format produced in yeast cells (antibody, also called ADI 29371-IgG1) heavy: not shown light: DIQLTQSPSSVSASVGDRVTITCRASQGISSWLAWYQQKPGKAPKLLIYGASSLQSGVPSRFSGSGSGTDFTLTISSLQPEDFATYYCQQKNPFPPTFGGGTKVEIKRTVAAPSVFIFPPSDEQLKSGTASVVCLLNNFYPREAKVQWKVDNALQSGNSQESVTEQDSKDSTYSLSSTLTLSKADYEKHKVYACEVTHQGLSSPVTKSFNRGEC |  | 1.95 nM |  | 2.13 nM | no binding (tested: 100 nM) | Kd (cynomolgus CD47-Fc): 1.41 nM |
| ADI-29341 in IgG4 format produced in CHO cells (antibody, also called ADI29341-IgG4) heavy: not shown light: DIQMTQSPSSVSASVGDRVTITCRASQGISRWLAWYQQKPGKAPKLLIYAASSLQSGVPSRFSGSGSGTDFTLTISSLQPEDFATYYCQQTVSFPITFGGGTKVEIKRTVAAPSVFIFPPSDEQLKSGTASVVCLLNNFYPREAKVQWKVDNALQSGNSQESVTEQDSKDSTYSLSSTLTLSKADYEKHKVYACEVTHQGLSSPVTKSFNRGEC |  |  | 0.604 nM | 1.89 nM |  |  |

Further lines, with some results ahead:

| Kd (Human CD47-Fc [1]) | Kd (Human CD47-Fc [2]) | IC50 [3] | EC50 [4] | binding result (mouse CD47-Fc [5]) | Binder | also measured |
| --- | --- | --- | --- | --- | --- | --- |
| 1.32 nM |  |  |  |  | ADI-29336 in Fab format (Fab, V domains shown) VH: QVQLQESGPGLVKPSETLSLTCTVSGGSISNYYWSWIRQPPGKGLEWIGTIYYSGSTRYNPSLKSRVTISVDTSKNQFSLKLSSVTAADTAVYYCARGKSAFNPWGQGTLVTVSS VL: DIQMTQSPSSVSASVGDRVTITCRASQGISRWLAWYQQKPGKAPKLLIYAASSLQSGVPSRFSGSGSGTDFTLTISSLQPEDFATYYCQQADLHPPLTFGGGTKVEIKR |  |
|  |  | 1.39 nM | 2.48 nM |  | ADI-29336 in IgG4 format produced in CHO cells (antibody, also called ADI29336-IgG4) heavy: not shown light: DIQMTQSPSSVSASVGDRVTITCRASQGISRWLAWYQQKPGKAPKLLIYAASSLQSGVPSRFSGSGSGTDFTLTISSLQPEDFATYYCQQADLHPPLTFGGGTKVEIKRTVAAPSVFIFPPSDEQLKSGTASVVCLLNNFYPREAKVQWKVDNALQSGNSQESVTEQDSKDSTYSLSSTLTLSKADYEKHKVYACEVTHQGLSSPVTKSFNRGEC |  |
| 218 nM |  |  |  |  | ADI-29371 in Fab format (Fab, V domains shown) VH: EVQLLESGGGLVQPGGSLRLSCAASGFTFGNYAMSWVRQAPGKGLEWVSMISGGGSTYYADSVKGRFTISRDNSKNTLYLQMNSLRAEDTAVYYCAKTPIYYGFDLWGRGTLVTVSS VL: DIQLTQSPSSVSASVGDRVTITCRASQGISSWLAWYQQKPGKAPKLLIYGASSLQSGVPSRFSGSGSGTDFTLTISSLQPEDFATYYCQQKNPFPPTFGGGTKVEIKR |  |
|  | 0.501 nM | 2.48 nM | 3.34 nM | no binding (tested: 100 nM) | ADI-29341 in IgG1 format produced in yeast cells (antibody, also called ADI29341-IgG1) heavy: not shown light: DIQMTQSPSSVSASVGDRVTITCRASQGISRWLAWYQQKPGKAPKLLIYAASSLQSGVPSRFSGSGSGTDFTLTISSLQPEDFATYYCQQTVSFPITFGGGTKVEIKRTVAAPSVFIFPPSDEQLKSGTASVVCLLNNFYPREAKVQWKVDNALQSGNSQESVTEQDSKDSTYSLSSTLTLSKADYEKHKVYACEVTHQGLSSPVTKSFNRGEC |  |
|  |  |  | 2.31 nM |  | ADI-29371 in IgG4 format produced in CHO cells (antibody, also called ADI 29371-IgG4) heavy: not shown light: DIQLTQSPSSVSASVGDRVTITCRASQGISSWLAWYQQKPGKAPKLLIYGASSLQSGVPSRFSGSGSGTDFTLTISSLQPEDFATYYCQQKNPFPPTFGGGTKVEIKRTVAAPSVFIFPPSDEQLKSGTASVVCLLNNFYPREAKVQWKVDNALQSGNSQESVTEQDSKDSTYSLSSTLTLSKADYEKHKVYACEVTHQGLSSPVTKSFNRGEC |  |

Reference: US20200181259A1 (Innovent, published 2020)
